Data from patent US12049656B2, “Process for the modification of a glycoprotein using a glycosyltransferase that is or is derived from a β(1,4)-n-acetylgalactosaminyltransferase” (Synaffix B.V., priority 2015, dated 2024).

Key:
[1] = target: β-(1,4)-GalNAcT (Caenorhabditis elegans, UniProt Q9GUM2); conditions: as donor substrate compared with UDP-GalNAc; cited from earlier work
[2] = system: TnGalNAcT; test: Transfer of 6-modified GalNAc-UDP derivatives to trimmed brentuximab by TnGalNAcT (mass spectrometric analysis); type: biochemical, Trichoplusia ni; conditions: sugar nucleotide 5 mM; TnGalNAcT 1.5 mg/mL; trimmed brentuximab 15 mg/mL; 30 °C overnight
Method: Bentuximab was trimmed analogues to the trimming of trastuzumab as described in example 6.
(§1) Trimmed bentuximab (15 mg/mL) was incubated with 6-amino-6-deoxy-GalNAc-UDP 94 (5 mM) and TnGalNAcT (1.5 mg/mL) in 10 mM MnCl2 and 25 mM Tris-HCl pH 8.0 at 30° C. overnight. A sample of the reaction mixture (2 μL) was incubated for 1 hour at 37° C. with Fabricator™ (1.25 U/μL) in phosphate-buffered saline (PBS) pH 6.6 in a total volume of 10 μL.
as §1, with “6-(2-azidoacetamido)-6-deoxy-GalNAc 93” for “6-amino-6-deoxy-GalNAc-UDP 94”

[3] = system: core GlcNAc(Fuc) substituted trastuzumab; test: Glycosyltransfer of 6-azido-GalNAc-UDP to trimmed trastuzumab under the action of GalNAcTs (mass spectral analysis); type: biochemical; conditions: 6-azido-GalNAc-UDP 1 mM; for Conversions (%) of GlcNAc(Fuc) substituted trastuzumab into 6-azido-GalNAc-GlcNAc(Fuc)-substituted trastuzumab: trimmed trastuzumab 10 mg/mL; for product formation, mass spectral analysis of Fabricator-digested samples: both enzyme concentrations (0.2 or 0.5 mg/mL)
Method: (§2) Prior to mass spectral analysis, IgGs were either treated with DTT, which allows analysis of both light and heavy chain, or treated with Fabricator™ (commercially available from Genovis, Lund, Sweden), which allows analysis of the Fc/2 fragment. For analysis of both light and heavy chain, a solution of 20 μg (modified) IgG was incubated for 5 minutes at 37° C. with 100 mM DTT in a total volume of 4 μL. If present, azide-functionalities are reduced to amines under these conditions. For analysis of the Fc/2 fragment, a solution of 20 μg (modified) IgG was incubated for 1 hour at 37° C. with Fabricator™ (1.25 U/μL) in phosphate-buffered saline (PBS) pH 6.6 in a total volume of 10 μL. After reduction or Fabricator-digestion the samples were washed trice with milliQ using an Amicon Ultra-0.5, Ultracel-10 Membrane (Millipore) resulting in a final sample volume of approximately 40 μL. Next, the samples were analyzed by electrospray ionization time-of-flight (ESI-TOF) on a JEOL AccuTOF. Deconvoluted spectra were obtained using Magtran software.
Glycan trimming of trastuzumab was performed with endo S from Streptococcus pyogenes (commercially available from Genovis, Lund, Sweden). Thus, trastuzumab (10 mg/mL) was incubated with endo S (40 U/mL) in 25 mM Tris pH 8.0 for approximately 16 hours at 37° C. The deglycosylated IgG was concentrated and washed with 10 mM MnCl2 and 25 mM Tris-HCl pH 8.0 using an Amicon Ultra-0.5, Ultracel-10 Membrane (Millipore). […] The two peaks of heavy chain belonged to one major product (49496 Da, 90% of total heavy chain), resulting from core GlcNAc(Fuc) substituted trastuzumab, and a minor product (49351 Da, ±10% of total heavy chain), resulting from trimmed trastuzumab.
Incorporation of 6-azidoGalNAc was tested for CeGalNAcT(30-383) (identified by SEQ ID NO: 6), AsGalNAcT(30-383) (identified by SEQ ID NO: 7), TnGalNAcT(33-421) (identified by SEQ ID NO: 8) and DmGalNAcT(47-403) (identified by SEQ ID NO: 9), which were expressed and purified as described in example 5. Trimmed trastuzumab (10 mg/mL), obtained by endo S treatment of trastuzumab as described above, was incubated with 6-azido-GalNAc-UDP (1 mM, commercially available from GlycoHub) in 10 mM MnCl2 and 25 mM Tris-HCl pH 7.5 and either 0.2 or 0.5 mg/mL of one of the above mentioned GalNAcTs.

[4] = cited from earlier work
[5] = system: core GlcNAc(Fuc) substituted trastuzumab; test: Glycosyltransfer of 6-azido-Gal-UDP to trimmed trastuzumab under the action of bovine β(1,4)-Gal-T1; type: biochemical; conditions: 0.1 or 0.5 mg/mL enzyme; 6-azido-Gal-UDP 1 mM; 30 °C overnight
Method: as §2
Glycan trimming of trastuzumab was performed with endo S from Streptococcus pyogenes (commercially available from Genovis, Lund, Sweden). Thus, trastuzumab (10 mg/mL) was incubated with endo S (40 U/mL) in 25 mM Tris pH 8.0 for approximately 16 hours at 37° C. […]

Sequence of β-(1,4)-GalNAcT (Q9GUM2 whole entry): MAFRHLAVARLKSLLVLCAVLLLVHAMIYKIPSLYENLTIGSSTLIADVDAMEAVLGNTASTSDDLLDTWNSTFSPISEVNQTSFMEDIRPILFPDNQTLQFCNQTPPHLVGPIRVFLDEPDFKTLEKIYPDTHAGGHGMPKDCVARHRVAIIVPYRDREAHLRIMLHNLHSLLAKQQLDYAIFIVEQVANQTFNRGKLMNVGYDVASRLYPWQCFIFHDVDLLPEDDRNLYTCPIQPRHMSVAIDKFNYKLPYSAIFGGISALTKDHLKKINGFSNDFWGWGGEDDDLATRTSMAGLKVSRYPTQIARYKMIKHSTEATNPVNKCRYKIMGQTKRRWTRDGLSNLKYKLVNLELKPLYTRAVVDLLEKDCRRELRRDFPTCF

Molecule | Conversions (%) of GlcNAc(Fuc) substituted trastuzumab into 6-azido-GalNAc-GlcNAc(Fuc)-substituted trastuzumab ([3]; 0.2 mg/mL enzyme) | Conversions (%) of GlcNAc(Fuc) substituted trastuzumab into 6-azido-GalNAc-GlcNAc(Fuc)-substituted trastuzumab ([3]; 0.5 mg/mL enzyme) | product formation, mass spectral analysis of Fabricator-digested samples [3] | further results
CC(=O)N[C@H]1[C@@H](OP(=O)(O)OP(=O)(O)OC[C@H]2O[C@@H](n3ccc(=O)[nH]c3=O)[C@H](O)[C@@H]2O)O[C@H](CO)[C@@H](O)[C@@H]1O [UDP-GlcNAc] |  |  |  | transferase activity remains [1]: 0.7%
CC(=O)NC1C(OP(=O)(O)OP(=O)(O)OCC2OC(n3ccc(=O)[nH]c3=O)C(O)C2O)OC(CNC(=O)CN=[N+]=[N-])C(O)C1O (stereo not drawn) [compound 93, 6-(2-azidoacetamido)-6-deoxy-GalNAc-UDP] |  |  |  | conversion to the modified brentuximab product [2]: 70%
CC(=O)NC1C(OP(=O)(O)OP(=O)(O)OCC2OC(n3ccc(=O)[nH]c3=O)C(O)C2O)OC(CN)C(O)C1O (stereo not drawn) [compound 94, 6-amino-6-deoxy-GalNAc-UDP] |  |  |  | conversion to the modified brentuximab product [2]: full conversion
CeGalNAcT (30-383): truncated Caenorhabditis elegans β-(1,4)-GalNAcT enzyme, amino acids 30-383 of SEQ ID NO: 2 | 0% | 0% | no product formation | 
AsGalNAcT (30-383): truncated Ascaris sum β-(1,4)-GalNAcT enzyme, amino acids 30-383 of SEQ ID NO: 3 (protein, AsGalNAcT (30-383)) DYSFWSPAFIISAPKTLTTLQPFSQSTSTNDLAVSALESVEFSMLDNSSILHASDNWTNDELVMRAQNENLQLCPMTPPALVGPIKVWMDAPSFAELERLYPFLEPGGHGMPTACRARHRVAIVVPYRDRESHLRTFLHNLHSLLTKQQLDYAIFVVEQTANETFNRAKLMNVGYAEAIRLYDWRCFIFHDVDLLPEDDRNLYSCPDEPRHMSVAVDKFNYKLPYGSIFGGISALTREQFEGINGFSNDYWGWGGEDDDLSTRVTLAGYKISRYPAEIARYKMIKHNSEKKNPVNRCRYKLMSATKSRWRNDGLSSLSYDLISLGRLPLYTHIKVDLLEKQSRRYLRTHGFPTC | 10% | 30% | partial conversion | 
β4GalT(Y289L,M344H): double mutant β-1,4-galactosyltransferase described by Ramakrishnan et al. (protein, UniProt P08037 1-402, looked up, variant Y289L M344H) MKFREPLLGGSAAMPGASLQRACRLLVAVCALHLGVTLVYYLAGRDLRRLPQLVGVHPPLQGSSHGAAAIGQPSGELRLRGVAPPPPLQNSSKPRSRAPSNLDAYSHPGPGPGPGSNLTSAPVPSTTTRSLTACPEESPLLVGPMLIEFNIPVDLKLVEQQNPKVKLGGRYTPMDCISPHKVAIIIPFRNRQEHLKYWLYYLHPILQRQQLDYGIYVINQAGESMFNRAKLLNVGFKEALKDYDYNCFVFSDVDLIPMNDHNTYRCFSQPRHISVAMDKFGFSLPYVQLFGGVSALSKQQFLSINGFPNNYWGWGGEDDDIYNRLAFRGMSVSRPNAVIGKCRHIRHSRDKKNEPNPQRFDRIAHTKETMLSDGLNSLTYMVLEVQRYPLYTKITVDIGTPS |  |  |  | activity in the presence of Mg2+ ([4]; Mg2+): 25-30%; loss of Mn2+-dependent activity ([4]; Mn2+): 98%
bovine β(1,4)-Gal-T1: bovine β(1,4)-galactosyltransferase, commercially available from Sigma Aldrich (protein, Bos Taurus GalT Y289L mutant, bovine β(1,4)-galactosyltransferase, commercially available from Sigma Aldrich) MKFREPLLGGSAAMPGASLQRACRLLVAVCALHLGVTLVYYLAGRDLRRLPQLVGVHPPLQGSSHGAAAIGQPSGELRLRGVAPPPPLQNSSKPRSRAPSNLDAYSHPGPGPGPGSNLTSAPVPSTTTRSLTACPEESPLLVGPMLIEFNIPVDLKLIEQQNPKVKLGGRYTPMDCISPHKVAIIILFRNRQEHLKYWLYYLHPMVQRQQLDYGIYVINQAGESMFNRAKLLNVGFKEALKDYDYNCFVFSDVDLIPMNDHNTYRCFSQPRHISVAMDKFGFSLPYVQLFGGVSALSKQQFLSINGFPNNYWGWGGEDDDIYNRLAFRGMSVSRPNAVIGKCRMIRHSRDKKNEPNPQRFDRIAHTKETMLSDGLNSLTYMVLEVQRYPLYTKITVDIGTPS |  |  |  | product formation, mass spectral analysis of reduced samples [5]: no product formation
TnGalNAcT (33-421): truncated Trichoplusia ni β-(1,4)-GalNAcT enzyme, amino acids 33-421 of SEQ ID NO: 4 (protein, TnGalNAcT(33-421)) SPLRTYLYTPLYNATQPTLRNVERLAANWPKKIPSNYIEDSEEYSIKNISLSNHTTRASVVHPPSSITETASKLDKNMTIQDGAFAMISPTPLLITKLMDSIKSYVTTEDGVKKAEAVVTLPLCDSMPPDLGPITLNKTELELEWVEKKFPEVEWGGRYSPPNCTARHRVAIIVPYRDRQQHLAIFLNHMHPFLMKQQIEYGIFIVEQEGNKDFNRAKLMNVGFVESQKLVAEGWQCFVFHDIDLLPLDTRNLYSCPRQPRHMSASIDKLHFKLPYEDIFGGVSAMTLEQFTRVNGFSNKYWGWGGEDDDMSYRLKKINYHIARYKMSIARYAMLDHKKSTPNPKRYQLLSQTSKTFQKDGLSTLEYELVQVVQYHLYTHILVNIDERS | 40% | 60% | partial conversion | 
DmGalNAcT (47-403): truncated Drosophila melanogaster β-(1,4)-GalNAcT enzyme, amino acids 47-403 of SEQ ID NO: 5 (protein, DmGalNAcT (47-403)) HKYAHIYGNASSDGAGGSEASRLPASPLALSKDRERDQELNGGPNSTIRTVIATANFTSIPQDLTRFLLGTKKFLPPRQKSTSALLANCTDPDPRDGGPITPNTTLESLDVIEAELGPLLRPGGAFEPENCNAQHHVAIVVPFRDRYAHLLLFLRNIHPFLMKQRIAYRIFIVEQTNGKPFNRAAMMNIGYLEALKLYQWDCFIFHDVDLLPLDDRNLYNCPRQPRHMSVAIDTLNFRLPYRSIFGGVSAMTREHFQAVNGFSNSFFGWGGEDDDMSNRLKHANLFISRYPVNIARYKMLKHQKEKANPKRYENLQNGMSKIEQDGINSIKYSIYSIKQFPTFTWYLAELKNSERKS | 0% | 0% | no product formation | 
